Results as given in patent US20090203530A1, “Polymer evolution via templated synthesis” (priority 2005, published 2009).

Experiments:
papain [1] = target: T1, papain (Carica papaya, UniProt P00784); experiment: Fluorescence polarization-based papain binding assay; settings: BFL-labelled controls; varying concentrations of papain
T1 construct: purchased Sigma-Aldrich
T1 sequence (P00784 134-345): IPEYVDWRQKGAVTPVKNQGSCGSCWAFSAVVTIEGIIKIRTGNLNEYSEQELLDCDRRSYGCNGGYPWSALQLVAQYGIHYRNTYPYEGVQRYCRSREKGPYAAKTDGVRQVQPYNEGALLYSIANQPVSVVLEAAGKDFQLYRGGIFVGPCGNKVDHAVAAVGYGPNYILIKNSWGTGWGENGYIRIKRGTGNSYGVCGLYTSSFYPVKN
Experimental: Purified PNA 18-mers prepared as described above were reacted with BODIPY-fluorescein succinamidyl ester (BFL-SE, Molecular Probes). For each labelling reaction, 25 μL of a 250-400 μM stock solution of PNA in H2O was mixed with 25 μL 0.2 M sodium bicarbonate (pH 8.0) plus 2.5 μL of a 20 mg/mL solution of BFL-SE in DMSO. After four hours at 25° C., 50 μL DMSO was added, and the labelling reaction was incubated for an additional 4 hours. The labelled product was purified by reverse-phase HPLC as described above. The addition of the BFL fluorophore on the N-terminal primary amine typically delayed the elution time of the PNA by ˜5 min, and the absorption of the eluted peak was monitored both at 260 nm and at 470 nm. Masses of labelled peptides were confirmed by MALDI mass spectrometry, as follows:
Fluorescence polarization-based papain affinity assays were carried out as follows. BFL-labelled PNA was used at concentrations between 5 nM and 10 nM. […] After the binding reactions were equilibrated (4 hours at 25° C.), they were loaded onto a Nunc opaque black 384-well plate, and fluorescence polarization was measured using the Analyst AD system (Molecular Devices) with a fluorescein filter. Fluorescence polarization data in FIGS. 5B and 6C is shown as the change in fluorescence polarization (calculated relative to the output in the absence of protein) as a function of papain concentration. […]

papain [2] = target: T1, papain; experiment: Enrichment assay by papain affinity selection of translated template mixtures; format: binding
Experimental: The methods used for in vitro papain affinity selection have been reported previously (Giesen (1998) NUCLEIC ACIDS RES. 26, 5004-5006). Papain-conjugated sepharose beads (50 μL) were prepared according to this protocol and combined with […] of translated and displaced PNA library. After 4 hours at 4° C. with slow mixing, the beads were filtered, washed three times with high salt buffer (50 mM Tris pH 7.5, 0.5 M NaCl), once with low salt buffer (50 mM Tris pH 7.5, 0.1 M NaCl), and resuspended in 50 μL papain selection buffer (50 mM Tris pH 7.5, 100 mM NaCl, 1 mM EDTA). One fifth of the beads were removed for PCR as described below.
The remaining beads (40 μL) were heated for 15 min at 95° C., cooled to 60° C., supplemented with an equal volume of fresh papain-linked sepharose beads; cooled rapidly to 4° C., and the selection was repeated. This protocol was repeated three times (four rounds total) for the first-generation selection (FIG. 4A) and was repeated twice (three rounds total) for the second-generation selection (FIG. 6A). After each round of affinity selection, PCR was performed using one fifth of the total beads. Filtered beads were resuspended in 18 μL NEB buffer 4 with BSA, 1 μL Hha I, and 1 μL HinPI I (all restriction endonucleases purchased from New England Biolabs). Reactions were incubated for 1.5 hours at 37° C., then added directly into 80 μL PCR master mix containing 5 μL Taq buffer, 5 μL 25 mM MgCl2, 1 μL 100 μM primer 1, 1 μL 100 μM primer 2, 1 μL 25 mM dNTPs, and 1 μL Taq DNA polymerase and 54 μL H2O. Primer sequences are as follows:
For the enrichment experiments described in FIG. 5A, […] total template:mixture (500:1 M1 template:P1 template; or 500:1 U1 template:P1 template) was translated as described above using library translation conditions. The individual template sequences are as follows:
The translated products were displaced as described above, subjected to three rounds of selection against papain as described above, and the resulting bound DNA templates were digested and amplified by PCR as described above. […]

In the case of CC1=CC(C)=[N+]2C1=Cc1ccc(CCC(=O)NCCN)n1[B-]2(F)F [BFL fluorophore, BFL-ethylenediamine], the “papain affinity (fluorescence polarization)” value (papain [1]) is reported as “did not bind papain”.

B1: U1: unrelated library sequence, translated from template SEQ ID NO: 18 (conjugate)
DNA: TGCGACGGTGCGCACCGTCGCAAGTCAGTCACCCAATCACTCACGCATCCAGTCACCCAACCGGACAAGGTGCGCACCTTGTCC
modifications: DNA, backbone and methylation of C not given here; DNA template covalently linked to PNA translation product, further chemistry not fully specified
In the case of B1, the “enrichment after papain affinity selection” value (papain [2]; 500:1 ratio of M1:U1 DNA templates, translation, displacement, selection) is reported as “no detectable enrichment”.

B2: P1 translation product: PNA 40-mer selected for papain binding, covalently linked to its DNA template (SEQ ID NO: 16) (conjugate)
DNA: TGCGACGGTGCGCACCGTCGCAAGCCATTCATGCATGCACCCAGGCATGCATTCATTCATGCGGACAAGGTGCGCACCTTGTCC
modifications: DNA, backbone and methylation of C not given here; DNA template covalently linked to PNA translation product, further chemistry not fully specified
B2 was tested, and the “enrichment after papain affinity selection” value (papain [2]; 500:1 M1:P1 template mixture, translated, displaced, three rounds of selection, PCR and restriction digestion) was roughly 500 fold and the “enrichment after papain affinity selection” value (papain [2]; 500:1 mixture of U1 (unrelated):P1 templates) was 500 fold.
